Test [1] concerns the target T1, human PD-1-his protein prepared in-house (human, UniProt Q15116 25-167, biotin-labeled (sites not given)).
T1 construct: also called biotin labeled human PD-1-his
The test is described as follows: competitive ELISA: biotin human PD-1-his + antibody on coated Pembrolizumab (competitor). On the procedure:
ELISA plates were washed once with wash buffer (PBST, PBS+0.05% Tween-20) and then blocked with 200 μl/well blocking buffer (5% w/v non-fatty milk in PBST) for 2 hours at 37° C. […] After incubation at 37° C. for 40 minutes, plates were washed using wash buffer, added and incubated with 100 μl/well Peroxidase Streptavidin for 40 minutes at 37° C. Plates were washed again using wash buffer. Finally, TMB was added and the reaction was stopped using 1M H₂SO₄. The absorbance was read on a microplate reader using dual wavelength mode with 450 nm for TMB and 630 nm as the reference wavelength, and the OD (450-630) values were plotted against antibody concentrations. Data was analyzed using Graphpad Prism software and IC₅₀ values were reported.
On the technique in general: An ELISA detects its analyte on a solid surface through an enzyme-linked reagent.

Test [2] addresses T2, human PD-1 expressed on GS-J2/PD-1 cells (Genscript) (human, UniProt Q15116 25-288). The test is described as follows: cell-based or functional assay.
The target in test [3] is T3, cynomolgus PD-1-his protein (Cat#:PD1-05223, Acro biosystems Inc.) (cynomolgus, UniProt B0LAJ3 25-170).
T3 construct: Bought protein used in Biacore and indirect ELISA; also called monkey PD-1; Cyno PD-1
The test can be described thus: indirect ELISA on coated cynomolgus PD-1-his.

Test [4] concerns the target T1, human PD-1-his protein prepared in-house. The test is described as follows: capture ELISA, antibody captured, biotin human PD-1-his detected. On the procedure:
Briefly, 96-well micro plates were coated with 100 μl 2 μg/ml AffiniPure Goat Anti-Mouse IgG F(ab′)₂ fragment specific (Cat#:115-005-072, Jackson lmmunoResearch) or Goat-anti-human IgG (Cat#:109-005-097, Jackson ImmunoResearch, for the positive control and negative control) in PBS overnight at 4° C. Plates were washed once with wash buffer (PBST, PBS+0.05% Tween-20) and then blocked with 200 μl/well blocking buffer (5% w/v non-fatty milk in PBST) for 2 hours at 37° C. […] After a final wash, plates were incubated with 100 μl/well TMB (Cat#:TMB-S-002, Innoreagents) at room temperature.
For the capture ELISA, 96-well plates were coated with 100 μl 2 μg/ml AffiniPure Goat Anti-Human IgG, Fcγ fragment specific (Cat#:109-005-098, Jackson Immunoresearch) instead of AffiniPure goat-anti-mouse IgG F(ab′)₂ fragment specific.

Test [5] has as its target T2, human PD-1 expressed on GS-J2/PD-1 …. The test can be described thus: flow cytometry on GS-J2/PD-1 cells. The method, then:
In specific, the 293F-mouse PD-1 cells and GS-J2/PD-1 cells were respectively harvested from cell culture flasks, washed twice and re-suspended in PBS containing 2% v/v Fetal Bovine Serum (FACS buffer). Then, 2×10⁵ cells per well were incubated in 96 well-plates with 100 μl of the anti-PD1 antibodies or controls at various concentrations for 40 minutes on ice. […] Following an incubation of 40 minutes at 4° C. in dark, cells were washed three times and re-suspended in FACS buffer. Fluorescence was measured using a Becton Dickinson FACS Canto II-HTS equipment and plotted against antibody concentrations. Data was analyzed using GraphPad Prism software and EC₅₀ values were reported.
For the cell-based binding FACS, R-Phycoerythrin AffiniPure Goat Anti-human IgG Fcγ fragment specific (Cat#:109-115-098, Jackson ImmunoResearch) was used for the humanized antibodies, with 1:1000 dilution in FACS buffer, 100 μl/well.

For test [6], the target named is T4, in house made human PD-1-Fc protein (human, biotin-labeled (sites not given)).
T4 construct: also called biotin-labeled human PD-1-Fc
The test is described as follows: competitive ELISA: biotin human PD-1-Fc + antibody on coated human PD-L1-Fc (competitor). On the procedure: (§1) Briefly, 100 μl human PD-L1-Fc protein (prepared in-house with SEQ ID NO: 28) at 2 μg/mL in carbonate/bicarbonate buffer (pH 9.6) was coated on 96-well micro plates overnight at 4° C., Plates were washed with wash buffer (PBS+0.05% w/v Tween-20, PBST), and blocked with 5% w/v non-fatty milk in PBST for 2 hours at 37° C. […] After incubation at 37° C. for 40 minutes, plates were washed using wash buffer. […] Plates were washed again using wash buffer. Finally, TMB was added and the reaction was stopped using 1M H₂SO₄. The absorbance was read on a microplate reader using dual wavelength mode with 450 nm for TMB and 630 nm as the reference wavelength, then the OD (450-630) values were plotted against antibody concentrations. Data was analyzed using Graphpad Prism software and IC₅₀ values were reported.

Test [7] addresses T4, in house made human PD-1-Fc protein. The test can be described thus: competitive ELISA: antibody pre-mixed with biotin-labeled human PD-1-Fc, added to coated human PD-L1-Fc (blocked ligand); unit from the axis 'Con of mAb, nM.'. The method, then: The activities of the anti-PD1 antibodies of the disclosure to block PD-L1-PD1 binding were measured in a competitive ELISA.
as §1

The term IC50 denotes the midpoint of a concentration-inhibition curve. By EC50 is commonly meant the concentration at which the effect is half-maximal.

B1: mouse anti-PD-1 monoclonal antibody E1A9C8A7 (antibody, V domains shown)
VH: QVQLQQSGAEVVRPGVSVRISCKGSGYTFSDYVMHWMKQSHGESLEWIGVISTYHIPAVYNQKFKGKATMTVDKSSSTVYLELARLTSEDSAIYYCAREVYGDSYYFDVWGAGTTVTVSS
VL: DVLMTQIPLSLPVSLGDQVSISCRSSQSIVHSNGNTYLEWYLQKPGQSPKLLIYKVSNRFSGVPDRFSGSGSGTDFTLKISRVEAEDLGVYYCFQGSHVPYTFGGGTKLEIK
notes: Hybridoma-derived mouse mAb purified on Protein A; also called Mouse E1A9C8A7
Regarding B1, the half-inhibitory concentration (IC50) in test [1] was 0.48 nM; in test [6], 0.37 nM. Further, the “Cell-based functional assay (EC50, nM)” value in test [2] is 6.62 nM. Also, the 50% effective concentration (EC50) in test [3] amounted to 0.07 nM; in test [4], 0.14 nM; in test [5], 0.44 nM.

B2: mouse anti-PD-1 monoclonal antibody E1G5D1H1 (antibody, V domains shown)
VH: EVQLVESGGGLVKPGGSLKLSCAASGFTFSDFYMYWVRQTPEKRLEWVATISNSGTQTYYLDSVKGRFTISRDNAKNNLYLQMSSLKSEDTAMYYCARDYYRYDSWYFDVWGAGTTVTVSS
VL: DIVLTQSPASLAVSQGQRATISCRASESVDFYGTSLMQWFQLKPGQPPKLLIYAASNVESGVPARFSGSGSGTNFSLNIHPVEEDDIAMYFCQQSRKVPWTFGGGTNLEIK
notes: Hybridoma-derived mouse mAb; also called EIG5D1H1; E1G5DIH1
In test [7], B2 returned an IC50 of 0.434 nM.

Source of the values: patent US20230331848A1 (BIOSION, published 2023).
